According to the DeepSol protein solubility set:

Test: soluble on expression in E. coli; label from the status in PepcDB or PDB records

Row | Sequence | soluble on expression in E. coli
1 | MGSSHHHHHHGGTGENLYFQGGSGSNRKKVAYFHDPDIGSYYYGAGHPMKPQRIRMTHSLIVSYNLYKYMEVYRPHKSDVNELTLFHDYEYIDFLSSISLENYREFTYQLKRFNVGEATDCPVFDGLFQFQQSCAGASIDGASKLNHHCADICVNWSGGLHHAKMSEASGFCYINDIVLGILELLKYHARVMYIDIDVHHGDGVEEAFYVTHRVMTVSFHKFGDYFPGTGDITDVGVNHGKYYSVNVPLNDGMTDDAFVDLFKVVIDKCVQTYRPGAIIIQCGADSLTGDRLGRFNLTIKGHARCVEHVRSYNIPLLVLGGGGYTIRNVSRCWAYETGVVLNKHHEMPDQISLNDYYDYYAPDFQLHLQPSNIPNYNSPEHLSRIKMKIAENLRHIEHAPGVQFSYVPPDFFNSDIDDESDKNQYELKDDSGGGRAPGTRAKEHSTTHHLRRKNYDDDFFDLSDRDQSIVPY | not soluble
2 | SSTGTFVVSQPLNYRGGARVEPADASGTEKAFEPATGRVIATFTCSGEKEVNLAVQNAKAAFKIWSQKSGMERCRILLEAARIIREREDEIATMECINNGKSIFEARLDIDISWQCLEYYAGLAASMAGEHIQLPGGSFGYTRREPLGVCVGIGAWNYPFQIASWKSAPALACGNAMVFKPSPFTPVSALLLAEIYSEAGVPPGLFNVVQGGAATGQFLCQHPDVAKVSFTGSVPTGMKIMEMSAKGIKPVTL | soluble
3 | MSEHLTLPTNKPQVTHFSSGPCAKHPGWSVSNLENACLGRSHRSEDGKAKLSEVIERSKQILGLPADYRLGIVPASDTGAVEMALWSLLGQRPLDILAWESFGQEWVKDVVDELKLPDVRLLKAPYGGLPNLDEVDFSHDVVFLWNGTTSGVRVPNGDWIKDDRQGLTICDATSAVFAMDIPWEKIDVLTYSWQKVLGGEAQHGVIVLSPRAVERLQTYEPAWPIPKIFRLSQKGKLIEGIFKGDTINTPSMLCVEDALDALIWAESVGGLPGLISRSEANLAAIAQWVKQSNWADFLAEKPETRSCTSICLKIVDAAFASLSAEDQGKFAKKLAKLLEKQQVAYDIAPYRAAPPGLRIWGGATVETADIEALLPWLDWAYANVKAEFVPVA | soluble
4 | SNAMSDKFHILLLNGPNLNLLGTREPEKYGYTTLAEIVSQLEIQAQGMDVALSHLQSNAEHALIDSIHQARGNTDFILINPAAFTHTSVALRDALLGVQIPFIEIHLSNVHAREPFRHHSYLSDIAVGVICGLGADGYNFALQAAVNRLSKSN | soluble
5 | MAHHHHHHMLQRSLARLCAAAQRQGNKALAAEGRSFALVNREVTAIKEHIQSLVTNTNNEVLDHAGKYVLAAGGKLMRPALVVLMAHAMLPLDVSAHLLEEPIGSLDEVTPGTILPFLRLAEVTELIHTASLLHDDVIDNTDTRRGRPALHKVYDAKRAVLAGDYMLARASFYIATLQVPRIVILMTTALEELTSGELMQMDGCFDIPRYEQKSFCKTASLIANSLASTAVLAGPGNEALEQTAFDFGKHLGIAFQILDDCLDITGDEKMLGKPKLVDMKEGIATIPVLLVARRNAKVAEMVCRRFAEPGDAEFCLEAVEKEGAVAEAMHRADEHCRLGLESLHKLHHSPARDALESALSMVMNRKS | not soluble
6 | MLAVGIVGLPNVGKSTLFNALTRANALAANYPFATIDKNVGVVPLEDERLYALQRTFAKGERVPPVVPTHVEFVDIAGLVKGAHKGEGLGNQFLAHIREVAAIAHVLRCFPDPDVVHVMGRVDPLEDAEVVETELLLADLATLERRLERLRKEARADRERLPLLEAAEGLYVHLQEGKPARTFPPSEAVARFLKETPLLTAKPVIYVANVAEEDLPDGRGNPQVEAVRRKALEEGAEVVVVSARLEAELAELSGEEARELLAAYGLQESGLQRLARAGYRALDLLTFFTAGEKEVRAWTVRRGTKAPRAAGEIHSDMERGFIRAEVIPWDKLVEAGGWARAKERGWVRLEGKDYEVQDGDVIYVLFNA | soluble
7 | PDGQDLAEARQRLDDSLEQAHQQHKALYERLMAYKTQPRMKTWLNELVWAHNQALWDAPTKVLAQGEPDPHLLLTTQLAPELLNTRKELMLISAYFVPGQEGLLYLTGRADAGVNVSLLTNSLEATDVPAVHGGYAPYRKALLEHGVKLYELRRQPGETETMRSSGPHLFRKSHSLVSSESSLHSKAMIFDRQKVFVGSFNFDPRSVLWNTEVGVLVDSPQLAEELRELTLQGMAPSLTYEARLEDGKVVWVTE | soluble
8 | MTGMTNVTKLASEPSGQEFLVFTLGDEEYGIDILKVQEIRGYDQVTRIANTPAFIKGVTNLRGVIVPIVDLRIKFSQVDVDYNDNTVVIVLNLGQRVVGIVVDGVSDVLSLTAEQIRPAPEFAVTLSTEYLTGLGALGDRMLILVNIEKLLNSEEMALLDSAASEVA | soluble
9 | MASKYAVKLKTDFDNPRWIKRHKHMFDFLDINGNGKITLDEIVSKASDDICAKLEATPEQTKRHQVCVEAFFRGCGMEYGKEIAFPQFLDGWKQLATSELKKWARNEPTLIREWGDAVFDIFDKDGSGTITLDEWKAYGKISGISPSQEDCESTFRHCDLDNAGDLDVDEMTRQHLGFWYTLDPEADGLYGNGVP | soluble
10 | MIRGLRQIEPYVAGVQPAERKMIKLNTNENAYGASPKVREALANFDVDNLRKYSTLEQADLRAALANNLKVKPEQLMIANGSDDVLSIAFLAFFNNDEPVLFPDLTYGFYKVWADLYRVNYHEIPLAEDFTINTEDYLADNGGIILTNPNAPTGIYKPLNEIEKLLKANQDTVVIIDEAYISFGGQSALSLLNKYNNLVITRTFSKDAALAGLRVGYAIANEPLIAVMNAVKHSINPYSVDLLAERLATAAVEDWSYYQENAKKIQKTRAWFSEQLVKQGFDVLPSQANFVLTKPHDLATAKLFEELEARKIYVRYFPKVERIKDYLRISMGTQEEMEEVVKAIEEIRG | soluble
11 | MFKRFRRLRLNENLRSMVRENSLSVNDLIYPLFVVNGTGIKKEISSMPDVFQMSLDEILKECQNVVNLGIKAIILFGVLENEKKDSCGSDALDDEGLVARSIREIKKNFPDLFIISDLCFCEYTDHGHCGIIDPKIKSVDNDATLEISAKQALVHARAGVDMIAPSGMMDGVITTLRKALDKEGFENLPIMAYSTKFASSYYGPFRDVAESAPSYGDRKSYQMDFANGKEALEESLEDEAQGADILMVKPALAYLDVVKEISLHSNLPLCIYNVSGEYAMLKAAKNAGVIDYEKVLYETIIAFKRAGAKLIITYHAKELAKMLKGEK | soluble
12 | MAQVSTTAGGAVGVNRSQSMLLSSQEVEQMSAKSYAGELQKARAAGRLNTDPALTARVRRVSQRLIAQTPSFRPDARNWRWEVNVLTTDDMNAYAMAGGKIMVYTGLVKQLKLSDAELAAVIGHEISHALREHTRENMSQAYAQQMGLGLVGALVGLNDSQLKLASLVGDVTLSKPHSRTMESEADIMGLELMARAGYDPNAAVNVWQKMQAAGGGGGMEFLSTHPSGPTRIRDLQAHIPQVWPLYQAAPKKGLEHHHHHH | not soluble
13 | MGSDKIHHHHHHMQVNRLFQIIYILLEKNSVTARELAEKIEVSKRTIYRDIETLSTAGIPVYMTKGKGGGISILPNFILNKAILTEEEKSEIISSIRAVNAVNFSDSEAEKVLIKLNSILGENDTDWIEVDFSNWGNAEKEKETFNNLKTAILSKKVVKFDYSSAKGENISRKVCPLKLCFKGQSWYMYGYCGIRNDYRFFKLRRIKDLYVSEESFNIKAPKKIMKEDNVFYDEFITLKMKISSKMAYRIYDEFEDFKKLDDGSFIVTAEYPKGEWLFSYISSFGEECEVLAPQEIREEIKNKIEKMLLNYS | not soluble
14 | MADANATICYLNGLSLHTINEVEKILLALPKKGDRCEVQMSKPLNRCIGRSTGDVIASRSVQIRDEPKPLSLSPQKSEQEIKKSSKSKKLSEDCCLRSIKERVEIVETRNGSDAFGAKKLQYKVLTDQVRVSPIVSCNGVTLELDVEVTIPDRDEKKKLKLEIDRTLSVLILSIRNH | not soluble
15 | MSLQNFDFNEALKGIQAGKPITGSDGVLAPLIKQLTEAALNAEIQSHLEQSSTSNRRNGYSKKTVKSAAGSFELETPRDRNGEYEPVLVKKHQTKLTAEIDSRILSLFSHGMSYRDIRHHIAEIYQLEVSEATISSITDELIPQLKAWQSRPLDSVYPFVWLDAIHYKVKDEGRYVSKAIYTLLALNTEGKKELIGLYCSESEGANYWLSVLTDLHNRGVQDILIACVDGLKGFPEAINAIFPNTEVQLCVIHQIRNSIRYVASRDQKAFMRDLKPVYKAVNKESAELALDDLEAVWGDQYPAVIKSWRDKWHLLSAYFKYPEAVRKPIYTTNAVEAVHRQFRKLTKTKGAFPNETSLLKLLYVGMLNASAKWTMPIRNWGQTMMQLSIYFPGRLDSVMREGHHHHHH | soluble
16 | MGSDKIHHHHHHMRRSDGRLLKSLSPFVRIIPHIMTKRNDAQNFYKQVVAVDKIDQYIKEKKDQGIRLNYLHLFIAVYVRVLAQRPQLNRFIMNNKIYTRYDIRISMAIKRLLKDDGEETTVKFLFSGLESIEEIVKIVDQTIEEGCAAGAANEVDTIAQRIMALPNSQVKLLVGTLKWMDRHNLLPKKIIEASPFHTSLFFTYLKSINLDFIYHHLYDFGTTGIFVALGKSKKLPVVEEDQVVVKKCCEIGYVLDERICDGLYYSNSFKLVKKYLANPYLLDERLEKVEEDVN | not soluble
17 | HHHHHHDYDIPTTENLYFQGAITLLTLIKTAEHWARQDIRTIEDSKLRALLTLCAVMTRKFSKSQLSLLCETHLRREGLGQDQAEPVLEVYQRLHSDKGGSFEAALWQQWDRQSLIMFITAFLNIALQLPCESSAVVVSGLRTLVPQSDNEE | soluble
18 | MSLAKTVLVTGASGFIGSHLVGRCLADGCRVKALVRKGNACIDSLRASGVEVIEGDVRDATAVDAAVRESDLVLHAAALTSDWGKMQEFIDINVGGTRNVCEASLRHGVGRLVHVSSFECFDHHLLGRIDEQTPYKARKQSYPDTKIGGTNEVWAAIKRGLSASILYPVWVYGPGDRTLFPLLADSILRRQLFFWARNAPMSMIYIDNLVDLTMLAASRPEAVGEAFMACDGEAITFEEVCRRVAVAIGSPVPSLHLPFGMVRSVAGVMEFVWRIAGSKKRPLLTRQAVDVLASRALADVSKARTMLGWQSHVPQEEGIRRTLEWLVTVDPARWKVKEGHHHHHH | soluble
19 | DGPYLQILEQPKQRGFRFRYVCEGPSHGGLPGASSEKNKKSYPQVKICNYVGPAKVIVQLVTNGKNIHLHAHSLVGKHCEDGVCTVTAGPKDMVVGFANLGILHVTKKKVFETLEARMTEACIRGYNPGLLVHSDLAYLQAEGGGDRQLTDREKEIIRQAAVQQTKEMDLSVVRLMFTAFLPDSTGSFTRRLEPVVSDAIYDSKAPNASNLKIVRMDRTAGCVTGGEEIYLLCDKVQKDDIQIRFYEEEENGGVWEGFGDFSPTDVHRQFAIVFKTPKYKDVNITKPASVFVQLRRKSDLETSEPKPFLYYPEIKDKEEVQRKRQK | soluble
20 | MGSDKIHHHHHHMTFIDSPLSQTIALAGGDLHVAVARSDLPLGALCGFASRRNPKRPFLFVSKVLGRHLPVRPQVMRMVHRRLAAKLPANLPGPVVAIGMAETAICLGQGVFEAWRGGSGREDGLFIHSTRYRLRQGLLSTFEESHSHATSHLIHQPAAALDRALCAACRTLVLVDDEASTGATFVALVEANRAAMPNLARIVCVTITDWMGAAKRAEITAAMPVPTTFVSLLEGGYTFEARTVTPPAMPNVTGDGAFKDDLIPVNWGRLGLRRPRPLPAAALAIRAKAGERVLVLGTGEFVFPPFQLARRLSAMGADVRVQATTRSPILEGGDIDGVIDFADAYGDGIPNFLYSTRPGDYDRVLVCYETPPSTAQTALIAALGAEPVFFNAIGGPRT | not soluble
